One molecule from patent US8487082B2, “Synthetic scFv analogue to the 6313/G2 (anti angiotensin II type 1 receptor) monoclonal antibody variable regions” (Queen Mary & Westfield College, priority 2008, dated 2013) can be followed below.

The nature of data set [1]: Body weight, aldosterone and activity of hollow fiber mice. Format: in vivo, nu/nu mice.
A further data set deals with MCF-7 cell xenografts. Description: In vivo xenograft assay. Particulars: nu/nu mice, 13 nmol/kg. As for the experimental part:
Mice were injected s.c. on the right-flank, with 150 μl sterile PBS containing 7.5×10^6 MCF-7 cells. Tumour cells were allowed to grow for 4 weeks without hormone support, thereafter mice received weekly s.c. injections of 17β-oestradiol valerate (0.1 mg/Kg body weight), in sesame oil (Kasukabe et al., Breast Cancer Res. 7(6) R1097-110 (2005)) for a further 8 weeks. Animals were monitored daily for general health, and body weights were measured twice-weekly. Tumour size was measured 3 times per week with slide callipers, and volumes were calculated as (L×W^2)/2, where L and W are the major and minor diameters, respectively. Once tumour volumes reached 150 to 200 mm^3, mice were randomized to treatment and control groups of 8 to 10 per group. Mice were treated by subcutaneous injections of R6313/G2 in sterile PBS (0.1 ml) at doses of 0.4 mg/kg (13 nmol/kg), 0.8 mg/kg (27 nmol/Kg), and 1.36 mg/kg (45.3 nmol/kg) body weight, twice per day for seven days. Control mice received sterile PBS. […] Relative body weights (%) were calculated as (Wt/Wi)×100, where Wt is the body weight at any given time and Wi is the body weight at treatment initiation. Net tumour volume was calculated as Vt-Vi, where Vt is the tumour volume at any given time and Vi is the tumour volume at the start of treatment, and expressed as a percentage of Vi.

The subject of data set [2] is breast cancer cells. In words: Caspase-driven apoptosis (summary statement). Format: cell-based. The text has this:
(§1) Cells were harvested using Trypsin/EDTA and counted.

Data set [3] relates to breast cancer cells. Description: Breast cancer cell proliferation (summary statement). The data set is classed as cell-based. On the procedure:
Confluent cell monolayers were removed from tissue culture flasks using trypsin/EDTA. Cells (15×10^3 per well) were seeded into 96 well tissue culture plates containing the appropriate medium for each cell line. […] Cell viability was assessed by the ability of metabolically active cells to reduce 2,3-bis[2-Methoxy-4-nitro-5-sulphophenyl]-2H-tetrazolium-5-carboxyanilide inner salt (XTT) to the coloured formazan product. Absorbance was measured using a Multiskan Ascent microplate reader (Thermo Labsystem, Helsinki, Finland) at a wavelength of 450 nm and a reference wavelength of 630 nm. Each measurement was performed in triplicate. IC50s were calculated using a non-linear regression formula using GraphPad Prism v4.0 software (GraphPad Software Inc, San Diego Calif., USA).

In another data set the test system is MCF-7 cells. In words: In vivo hollow fiber assay. The arrangement: species or system balb/c nu/nu mice. As for the experimental part:
(§2) Hollow Fiber procedures followed the method of Hollingshead. (Hollingshead et al Life Sci 57 131-41 (1995)).
(§3) Polyvinylidene difluoride (PVDF) hollow fibers (500 kDa cut-off, 1 mm inner diameter; Spectrum Europe B.V., Breda, Netherlands) were flushed through with 70% ethanol using a blunt 21 gauge needle and 10 ml syringe. Fibers were then immersed in 70% ethanol for 72 hours, flushed through again with 70% ethanol, then distilled water, and then autoclaved at 131° C. Finally, before loading cell suspensions, fibers were flushed through with RPMI 1640 culture medium. Cells (MCF-7, T47D, and MDA-MB-231) were introduced into fibers at densities of 2.5 to 3.0×10^6 cells/ml. Fibers were then heat-sealed at 2 cm intervals and placed in Petri dishes containing 3 ml of the cell appropriate medium.
(§4) Cell-loaded hollow fiber segments were incubated at 37° C. in culture medium overnight before implantation into pure strain 5-6 week old female balb/c nu/nu mice. Fibers were implanted into the animals under anaesthesia (2% Isofluorane). Three 2 cm fibers, each containing one of the cell lines MCF-7, T47D, or MDA-MB-231, were implanted at both subcutaneous (s.c.) and intraperitoneal (i.p.) sites into each animal. For i.p. implants, a small incision was made through the skin and musculature of the ventral abdominal wall. Fibers were placed into the peritoneal cavity and both incisions were closed with metallic suture clips (Harvard Instruments, Edenbridge UK). For s.c. implants, a small incision was made dorsally. The fibers were implanted to the left of the dorsal midline in a cranial direction. The small incision was closed with metallic suture clips.
(§5) Mice (n=5/group) with hollow fiber implants were treated with R6313/G2 (0.07 mg/kg (2.5 nmol/kg), and 0.7 mg/kg (25 nmol/kg) in 0.1 ml PBS, subcutaneously) twice per day for six days. Control animals (n=5) received vehicle alone. 24 hours after the last injection, animals were killed by cervical dislocation and the fibers were recovered and transferred to pre-warmed RPMI 1640 medium containing 20% FBS for 30 minutes.
(§6) Cell viability was measured using a modified MTT assay. Fibers were incubated in RPMI 1640 with 20% FBS containing 1 mg/ml MTT, and incubated at 37° C. under […], 5% CO2 for 4 hours. The reagent was aspirated, and 2 ml sterile filtered 2.5% protamine sulphate (0.9 g NaCl, 2.5 g protamine sulphate in 100 ml water) was added. Specimens were stored at 4° C. for a minimum of 24 hours in the dark to fix the formazan product. Fresh protamine sulphate (2.5%) was added and fibers were stored for a further 2 to 4 hours at 4° C. Each fiber was transferred to a well in a 24 well plate, cut in half and air-dried overnight, protected from light. Dimethyl sulphoxide (DMSO) (300 μl) was added to each well and the formazan product extracted. An aliquot (190 μl) from each well was transferred to a 96 well plate and absorbance read at 540 nm using a Multiskan Ascent photometric microplate reader (Thermo labsystem). Treated values were calculated as a percentage of the controls.

In data set [4] the test system is T47D cells. In words: In vivo hollow fiber assay. The arrangement: species or system balb/c nu/nu mice. Particulars: i.p. site, 0.7 mg/kg (25 nmol/kg) twice per day. On the procedure:
as §2, §3, §4, §5, §6

The test system of another data set is MDA-MB-231 cells. Description: In vivo hollow fiber assay. The arrangement: species or system balb/c nu/nu mice. On the procedure:
as §2, §3, §4, §5, §6

Data set [5] can be described thus: Body weight and mortality in xenograft assay. The data set is classed as in vivo, mice. Particulars: for body weight: MCF7 xenograft mice. On the procedure: Mice were injected s.c. on the right-flank, with 150 μl sterile PBS containing 7.5×10^6 MCF-7 cells. Tumour cells were allowed to grow for 4 weeks without hormone support, thereafter mice received weekly s.c. injections of 17β-oestradiol valerate (0.1 mg/Kg body weight), in sesame oil (Kasukabe et al., Breast Cancer Res. 7(6) R1097-110 (2005)) for a further 8 weeks. Animals were monitored daily for general health, and body weights were measured twice-weekly. Tumour size was measured 3 times per week with slide callipers, and volumes were calculated as (L×W^2)/2, where L and W are the major and minor diameters, respectively. Once tumour volumes reached 150 to 200 mm^3, mice were randomized to treatment and control groups of 8 to 10 per group. Mice were treated by subcutaneous injections of R6313/G2 in sterile PBS (0.1 ml) at doses of 0.4 mg/kg (13 nmol/kg), 0.8 mg/kg (27 nmol/Kg), and 1.36 mg/kg (45.3 nmol/kg) body weight, twice per day for seven days. Control mice received sterile PBS. At the termination of the study, animals were sacrificed by cervical dislocation. Relative body weights (%) were calculated as (Wt/Wi)×100, where Wt is the body weight at any given time and Wi is the body weight at treatment initiation. Net tumour volume was calculated as Vt-Vi, where Vt is the tumour volume at any given time and Vi is the tumour volume at the start of treatment, and expressed as a percentage of Vi.

Data set [6] deals with T47D cells. In words: Apoptosis - caspase-3/7 activity. The data set is classed as cell-based.
Excerpt: as §1

The mark [7] stands for this setting: in the presence of up to 100 nmol angiotensin II per L.

B1: R6313/G2: murine scFv analogue of the 6313/G2 anti-AT1 receptor monoclonal antibody variable domains, SEQ ID NO:15 (protein)
scFv: YAAQPAMAQVKLQQSGPELEKPGASVKISCKASGYSFTGYNMNWVKQSNGKSLEWIGNIDPYYGGTTYNQKFKGKATLTVDKSSSTAYMQLKSLTSEDSAVYYCAREVDYWGQGTTVTVSSGGGGSGGGGSGGGGSDIELTQSPASLAVSLGQRATISYRASKSVSTSGYSYMHWNQQKPGQPPRLLIYLVSNLESGVPARFSGSGSGTDFTLNIHPVEEEDAATYYCQHIRELTRSEGTKLEIKRAAAGAPVPY
modifications: 12D
With B1, the animal activity entry in data set [1] (13 nmol/kg 2× per day) is “no effect”. Also, the body weight entry is given as “no effect” in [1] (13 nmol/kg 2× per day), “no weight loss” in data set [5] (0.4 mg/kg (13 nmol/kg) twice per day), “no weight loss” in data set [5] (0.8 mg/kg (27 nmol/kg) twice per day) and “significantly reduced” in [5] (1.36 mg/kg (45.3 nmol/kg) twice per day). Besides, the circulating aldosterone concentrations entry in data set [1] (13 nmol/kg 2× per day) is reported as “no effect”. Also, the “body weights of the experimental animals” value in data set [1] (hollow fiber mice, during the period of treatment) is given as “no changes”. Also, in the data set with MCF-7 cell xenografts, the “cancer cell growth, xenograft tumours” value is given as “significantly inhibited cancer cell growth”. The values for the caspase-driven apoptosis entry with breast cancer cells [2] (angiotensin II omitted) and in the data set on breast cancer cells [2] (setting [7]) were “omission of angiotensin blocks its effects” and “enhances caspase-driven apoptosis”, respectively. Also, the “breast cancer cell proliferation” value is “no effect” in the data set with breast cancer cells [3] (in the absence of angiotensin II) and “significantly inhibits breast cancer cell proliferation” in the data set on breast cancer cells [3] (setting [7]). Besides, the “cell survival in hollow fibers in vivo” value is reported as “inhibited MCF7 cell survival” with MCF-7 cells (MCF7, i.p. site, 0.07 and 0.7 mg/kg (2.5 and 25 nmol/kg) twice per day); “dose dependently inhibited cell survival” in the data set with MCF-7 cells (MCF-7, s.c. site); “inhibited” with T47D cells [4]; “inhibited” in the data set on MDA-MB-231 cells (MBA MB 231, i.p. site, 0.7 mg/kg (25 nmol/kg) twice per day); “inhibited at the highest dose” with MDA-MB-231 cells (MDA MB 231, s.c. site, highest dose). Moreover, the “other effects in xenograft mice” value in [5] (13 nmol/kg) is on record as “without other effects”. For the same molecule, the mortality result in data set [5] (0.4 mg/kg twice per day, during the treatment period) is recorded as “no mortality”; in [5] (0.8 mg/kg group, by day 8, n=8), “four died by day 8”; in data set [5] (0.8 mg/kg twice per day, during the treatment period), “no mortality”; in data set [5] (1.36 mg/kg group, by day 8), “all died by day 8”. The “effect on angiotensin II inhibition of caspase-3/7 activity” value in the data set with T47D cells [6] (100 nmol/L angiotensin II, 12 hours) is “inhibition was blocked”. The caspase-3/7 activity result with T47D cells [6] (R6313/G2 alone, 48 hours) is given as “dose-dependent increase of caspase-3/7 activity”.
